Consider one molecule from patent publication US20140343256A1 (TECHNISCHE UNIVERSITAT MUNCHEN, published 2014).

Ends that are not written are not given here. * marks the point of attachment. Palmitoyl = CCCCCCCCCCCCCCCC(=O)*

Test [1] addresses recombinant TLR2ECD-Fc fusion protein (human IgGFc fused mouse TLR2ECD protein) (murine; human) (UniProt Q9QUN7). The test is described as follows: SPR competition: T2EC pre-incubated with T2.5, binding to immobilised P3CSK4.
Test [2] deals with T1, N-palmitoyl-S-(2,3-bis(palmitoyloxy)-(2R,S)-propyl)-(R)-cysteinyl-seryl-(lysyl)-3-lysine.
T1 construct: Synthetic bacterial lipopeptide analogue and TLR2 agonist, immobilised on the SPR chip; also called P3CSK4; tripalmitoyl-cysteinyl-seryl-(lysyl)3-lysine
T1 peptide: Palmitoyl-C(2,3‑bis(palmitoyloxy)‑(2R,S)‑propyl)SKKKK
As to the kind of experiment: SPR, antibody alone over immobilised P3CSK4. For orientation: SPR reads the build-up and loss of mass on a sensor chip optically.

recombinant TLR2ECD-Fc fusion protein (human IgGFc fused mouse TLR2ECD protein) (murine; human), sequence (Q9QUN7 25-587 limits assumed, form in doubt): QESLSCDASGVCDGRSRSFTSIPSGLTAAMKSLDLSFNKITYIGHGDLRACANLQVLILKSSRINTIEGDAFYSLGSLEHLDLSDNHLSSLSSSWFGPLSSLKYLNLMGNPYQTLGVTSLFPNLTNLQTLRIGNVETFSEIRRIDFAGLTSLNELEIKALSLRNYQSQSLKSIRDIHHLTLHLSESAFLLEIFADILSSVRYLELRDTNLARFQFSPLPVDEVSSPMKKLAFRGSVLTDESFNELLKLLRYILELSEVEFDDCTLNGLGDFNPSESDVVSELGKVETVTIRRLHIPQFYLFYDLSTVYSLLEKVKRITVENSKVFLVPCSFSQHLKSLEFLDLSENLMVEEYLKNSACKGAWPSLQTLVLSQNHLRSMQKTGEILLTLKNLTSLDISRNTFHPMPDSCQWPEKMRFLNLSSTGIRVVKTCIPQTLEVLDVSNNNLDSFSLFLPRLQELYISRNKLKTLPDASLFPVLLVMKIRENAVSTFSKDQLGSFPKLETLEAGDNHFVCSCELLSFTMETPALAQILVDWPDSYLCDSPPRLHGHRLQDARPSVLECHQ

B1: murine monoclonal antibody T2.5 (antibody, V domains shown)
VH: QVQLQQSGPELVNPGASVKLSCKASGFTFTTYGINWVKQGPGQGLEWIGWIYPRDGSTNFNENFKDKAALTVDTSSSTAYMELHSLTSEDSAVYFCARLTGGTFLDYWGQGTTLTVSS
VL: DIVLTQSPASLAVSLGQRATISCRASESVEYYGTSLMQWYQQKPGQPPKLLIFGASNVESGVPVRFSGSGSGTDFSLNIHPVEEDDIVMYFCQQSRKLPWTFGGGTKLEIKR
notes: also called mAb T2.5; native T2.5
For B1, in test [1], the molar excess of T2.5 over T2EC that abrogated the T2EC-P3CSK4 interaction (fold molar excess) turned out to be 10 and the molar ratio (T2.5:T2ECD) required to reduce binding to 50% (molar ratio (T2.5:T2ECD)) came to 3.3. Moreover, in test [2], the binding result is “no binding”.
